Results on 66 substances are retold here after patent US11541107B2, “Peptides and T cells for use in immunotherapeutic treatment of various cancers” (Immatics Biotechnologies GmbH, priority 2015, dated 2023).

For the test, the target named is HLA-A*02 (Homo sapiens, UniProt P04439, D140Y/D185E/D98H/E176V/E277Q/G131W/G231S/I119V/I121R/I166T/I218V/L300P/N151K/N90K/P208A/P217A/Q86G/Q94H/R138H/R169H). In words: MHC binding assay, UV-ligand exchange with beta2m ELISA, HLA-A*02. The following applies: binding to HLA-A*02 ranged by peptide exchange yield (UV-ligand exchange, beta2m ELISA). An excerpt:
Candidate peptides for T cell based therapies according to the present invention were further tested for their MHC binding capacity (affinity). The individual peptide-MHC complexes were produced by UV-ligand exchange, where a UV-sensitive peptide is cleaved upon UV-irradiation, and exchanged with the peptide of interest as analyzed. Only peptide candidates that can effectively bind and stabilize the peptide-receptive MHC molecules prevent dissociation of the MHC complexes. To determine the yield of the exchange reaction, an ELISA was performed based on the detection of the light chain (ß2 m) of stabilized MHC complexes. The assay was performed as generally described in Rodenko et al. (Rodenko et al., 2006).
96 well MAXISorp plates (NUNC) were coated over night with 2 ug/ml streptavidin in PBS at room temperature, washed 4× and blocked for 1 h at 37° C. in 2% BSA containing blocking buffer. […] Peptide-MHC monomers of the UV-exchange reaction were diluted 100 fold in blocking buffer. Samples were incubated for 1 h at 37° C., washed four times, incubated with 2 ug/ml HRP conjugated anti-β2 m for 1h at 37° C., washed again and detected with TMB solution that is stopped with […]. Absorption was measured at 450 nm. Candidate peptides that show a high exchange yield (preferably higher than 50%, most preferred higher than 75%) are generally preferred for a generation and production of antibodies or fragments thereof, and/or T cell receptors or fragments thereof, as they show sufficient avidity to the MHC molecules and prevent dissociation of the MHC complexes.

For “92 (LLRGPPVARA; listed as Homo sapiens) [compound 92]”, the Peptide exchange result is “++ (20%-49% = ++)”.

With “334 (GRADALRVL; listed as Homo sapiens) [compound 334]”, the Peptide exchange entry is listed as “+++ (50%-75% = +++)”.

For “63 (TLSSERDFAL; listed as Homo sapiens) [compound 63]”, the Peptide exchange result is “+ (<20% = +)”.

For the substance “80 (TLDEYLTYL; listed as Homo sapiens) [compound 80]”, the Peptide exchange entry is “+++ (50%-75% = +++)”. To “91 (SSLEPQIQPV; listed as Homo sapiens) [compound 91]” belongs “+ (<20% = +)”; to “14 (LLDHLSFINKI; listed as Homo sapiens) [compound 14]”, “++ (20%-49% = ++)”. As for “82 (VLLRVLIL; listed as Homo sapiens) [compound 82]”, the entry is “++ (20%-49% = ++)”; as for “1 (PLWGKVFYL; listed as Homo sapiens) [compound 1]”, “++ (20%-49% = ++)”. As for “6 (FLDPAQRDL; listed as Homo sapiens) [compound 6]”, the entry is “+++ (50%-75% = +++)”.

Turning to “26 (KVDGVVIQL; listed as Homo sapiens) [compound 26]”, the Peptide exchange entry is “+++ (50%-75% = +++)”. As for “8 (KLGPFLLNA; listed as Homo sapiens) [compound 8]”, the Peptide exchange entry is reported as “+++ (50%-75% = +++)”. To “340 (SVAKTILKR; listed as Homo sapiens) [compound 340]” belongs “++ (20%-49% = ++)”. As for “337 (KVLGKIEKV; listed as Homo sapiens) [compound 337]”, the entry is “+++ (50%-75% = +++)”. As for “59 (ALTKILAEL; listed as Homo sapiens) [compound 59]”, the entry is “+++ (50%-75% = +++)”.

In the case of “61 (HLPDFVKQL; listed as Homo sapiens) [compound 61]”, the Peptide exchange result is on record as “++ (20%-49% = ++)”. Consider “62 (SLFNQEVQI; listed as Homo sapiens) [compound 62]”, for which the Peptide exchange result was “+++ (50%-75% = +++)”. To “31 (ALSDETKNNWEV; listed as Homo sapiens) [compound 31]” belongs “++++ (>=75% = ++++)”. Consider “329 (FAWEPSFRDQV; listed as Homo sapiens) [compound 329]”, for which the Peptide exchange result is recorded as “++ (20%-49% = ++)”. To “21 (SLYHRVLLY; listed as Homo sapiens) [compound 21]” belongs “++++ (>=75% = ++++)”; to “50 (EYALLYHTL; listed as Homo sapiens) [compound 50]”, “++ (20%-49% = ++)”; to “11 (GVLKVFLENV; listed as Homo sapiens) [compound 11]”, “++ (20%-49% = ++)”. As for “336 (GLMDGSPHFL; listed as Homo sapiens) [compound 336]”, the Peptide exchange entry is given as “++ (20%-49% = ++)”. As for “39 (ALMAVVSGL; listed as Homo sapiens) [compound 39]”, the entry is “+++ (50%-75% = +++)”; as for “326 (SLLPLVWKI; listed as Homo sapiens) [compound 326]”, “+++ (50%-75% = +++)”. As for “52 (ELLSSIFFL; listed as Homo sapiens) [compound 52]”, the entry is “+++ (50%-75% = +++)”. On to “325 (RLLPKVQEV; listed as Homo sapiens) [compound 325]”, for which the Peptide exchange result is listed as “++ (20%-49% = ++)”.

Turning to “54 (FINPKGNWLL; listed as Homo sapiens) [compound 54]”, the Peptide exchange result is given as “+++ (50%-75% = +++)”.

In the case of “53 (SLLSHVIVA; listed as Homo sapiens) [compound 53]”, the Peptide exchange result is reported as “+++ (50%-75% = +++)”. To “42 (VLSPFILTL; listed as Homo sapiens) [compound 42]” belongs “+++ (50%-75% = +++)”; to “77 (IVLSTIASV; listed as Homo sapiens) [compound 77]”, “+++ (50%-75% = +++)”. In the case of “69 (GIYDGILHSI; listed as Homo sapiens) [compound 69]”, the Peptide exchange entry was “+++ (50%-75% = +++)”. Regarding “10 (KTLDVFNIIL; listed as Homo sapiens) [compound 10]”, the Peptide exchange result is recorded as “++ (20%-49% = ++)”. Regarding “330 (FLWPKEVEL; listed as Homo sapiens) [compound 330]”, the Peptide exchange result is “+++ (50%-75% = +++)”. To “339 (VLGPGPPPL; listed as Homo sapiens) [compound 339]” belongs “++ (20%-49% = ++)”; to “335 (VLLAAGPSAA; listed as Homo sapiens) [compound 335]”, “++ (20%-49% = ++)”; to “85 (STLDGSLHAV; listed as Homo sapiens) [compound 85]”, “+++ (50%-75% = +++)”. As for “58 (ALDDSLTSL; listed as Homo sapiens) [compound 58]”, the entry is “++ (20%-49% = ++)”. As to “22 (MLSDLTLQL; listed as Homo sapiens) [compound 22]”, the Peptide exchange entry is reported as “++++ (>=75% = ++++)”. For the substance “23 (AQTVVVIKA; listed as Homo sapiens) [compound 23]”, the Peptide exchange entry is “+ (<20% = +)”. As for “65 (KLDGICWQV; listed as Homo sapiens) [compound 65]”, the Peptide exchange result is “+++ (50%-75% = +++)”.

Regarding “46 (SLAKHGIVAL; listed as Homo sapiens) [compound 46]”, the Peptide exchange result is given as “+++ (50%-75% = +++)”.

As for “40 (SLLALPQDLQA; listed as Homo sapiens) [compound 40]”, the Peptide exchange result is given as “+++ (50%-75% = +++)”. As for “28 (TLYSMDLMKV; listed as Homo sapiens) [compound 28]”, the entry is “+++ (50%-75% = +++)”; as for “76 (ILLDESNFNHFL; listed as Homo sapiens) [compound 76]”, “+++ (50%-75% = +++)”; as for “20 (ALDGHLYAI; listed as Homo sapiens) [compound 20]”, “+++ (50%-75% = +++)”. “56 (KILDLTRVL; listed as Homo sapiens) [compound 56]”: the Peptide exchange entry is reported as “++ (20%-49% = ++)”. As for “74 (ILDETLENV; listed as Homo sapiens) [compound 74]”, the entry is “++ (20%-49% = ++)”; as for “324 (AIFDFCPSV; listed as Homo sapiens) [compound 324]”, “++++ (>=75% = ++++)”; as for “323 (ILSVVNSQL; listed as Homo sapiens) [compound 323]”, “+++ (50%-75% = +++)”. To “35 (YVLPKLYVKL; listed as Homo sapiens) [compound 35]” belongs “++ (20%-49% = ++)”. For “4 (ELAEIVFKV; listed as Homo sapiens) [compound 4]”, the Peptide exchange result is given as “+++ (50%-75% = +++)”. In the case of “338 (LLYDGKLSSA; listed as Homo sapiens) [compound 338]”, the Peptide exchange result is “++ (20%-49% = ++)”. As for “13 (VLRDNIQGI; listed as Homo sapiens) [compound 13]”, the entry is “+++ (50%-75% = +++)”; as for “33 (LLLPLLPPLSPSLG; listed as Homo sapiens) [compound 33]”, “+++ (50%-75% = +++)”.

“83 (ELLEYLPQL; listed as Homo sapiens) [compound 83]”: the Peptide exchange result is recorded as “+++ (50%-75% = +++)”. To “29 (TLCNKTFTA; listed as Homo sapiens) [compound 29]” belongs “+++ (50%-75% = +++)”; to “12 (GLIYEETRGV; listed as Homo sapiens) [compound 12]”, “++ (20%-49% = ++)”; to “37 (ALINDILGELVKL; listed as Homo sapiens) [compound 37]”, “+++ (50%-75% = +++)”. As for “66 (FITDFYTTV; listed as Homo sapiens) [compound 66]”, the entry is “+++ (50%-75% = +++)”; as for “55 (IASAIVNEL; listed as Homo sapiens) [compound 55]”, “++ (20%-49% = ++)”; as for “71 (GLITVDIAL; listed as Homo sapiens) [compound 71]”, “+++ (50%-75% = +++)”. As for “60 (FLIDTSASM; listed as Homo sapiens) [compound 60]”, the entry is “++ (20%-49% = ++)”; as for “67 (GVIETVTSL; listed as Homo sapiens) [compound 67]”, “++ (20%-49% = ++)”; as for “78 (LLWGHPRVA; listed as Homo sapiens) [compound 78]”, “+++ (50%-75% = +++)”. For “84 (FLEEEITRV; listed as Homo sapiens) [compound 84]”, the Peptide exchange result is on record as “+++ (50%-75% = +++)”.

As to “45 (VLGPTPELV; listed as Homo sapiens) [compound 45]”, the Peptide exchange entry is on record as “+++ (50%-75% = +++)”.
